Data from patent US20260258152.

Target: activated Factor VIII (FVIIIa) (UniProt P00451)
Chain of UniProt P00451 (P00451 other isoform, or with tags, fused parts or gaps): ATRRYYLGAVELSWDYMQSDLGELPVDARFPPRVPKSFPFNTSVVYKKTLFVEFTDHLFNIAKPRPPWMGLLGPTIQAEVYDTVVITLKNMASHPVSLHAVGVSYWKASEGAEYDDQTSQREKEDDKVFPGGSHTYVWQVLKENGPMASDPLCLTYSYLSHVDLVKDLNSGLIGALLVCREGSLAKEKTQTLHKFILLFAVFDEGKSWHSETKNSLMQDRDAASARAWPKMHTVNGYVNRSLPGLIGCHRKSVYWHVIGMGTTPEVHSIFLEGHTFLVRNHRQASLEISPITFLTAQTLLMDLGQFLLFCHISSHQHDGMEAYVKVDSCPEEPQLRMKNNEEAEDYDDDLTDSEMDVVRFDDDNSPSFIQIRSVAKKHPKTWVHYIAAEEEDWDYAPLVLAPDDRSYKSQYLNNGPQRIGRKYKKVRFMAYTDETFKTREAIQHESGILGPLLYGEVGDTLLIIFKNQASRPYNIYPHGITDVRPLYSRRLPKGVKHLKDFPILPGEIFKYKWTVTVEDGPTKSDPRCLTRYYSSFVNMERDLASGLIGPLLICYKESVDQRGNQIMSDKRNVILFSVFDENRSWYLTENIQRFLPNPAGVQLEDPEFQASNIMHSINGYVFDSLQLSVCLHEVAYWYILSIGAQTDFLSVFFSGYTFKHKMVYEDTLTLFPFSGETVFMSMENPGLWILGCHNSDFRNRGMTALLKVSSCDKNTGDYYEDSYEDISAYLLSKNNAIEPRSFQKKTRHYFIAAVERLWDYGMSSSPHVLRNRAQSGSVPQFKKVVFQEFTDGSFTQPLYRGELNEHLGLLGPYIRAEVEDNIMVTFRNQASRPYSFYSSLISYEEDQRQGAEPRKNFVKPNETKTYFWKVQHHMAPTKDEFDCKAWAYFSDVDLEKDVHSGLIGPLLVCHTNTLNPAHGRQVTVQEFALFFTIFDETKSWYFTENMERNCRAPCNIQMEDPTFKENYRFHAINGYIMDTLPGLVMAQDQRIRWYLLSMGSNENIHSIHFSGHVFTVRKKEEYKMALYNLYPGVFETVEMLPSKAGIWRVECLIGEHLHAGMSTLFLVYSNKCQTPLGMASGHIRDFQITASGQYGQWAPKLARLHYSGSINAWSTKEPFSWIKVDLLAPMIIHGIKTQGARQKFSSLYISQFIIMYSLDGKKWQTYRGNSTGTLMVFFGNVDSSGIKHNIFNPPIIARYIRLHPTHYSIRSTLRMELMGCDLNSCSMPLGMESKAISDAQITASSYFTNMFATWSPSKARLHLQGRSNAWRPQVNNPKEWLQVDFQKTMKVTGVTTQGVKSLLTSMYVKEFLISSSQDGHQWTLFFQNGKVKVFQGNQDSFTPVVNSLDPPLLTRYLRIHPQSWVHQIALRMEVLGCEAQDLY

Substance: Factor IX G93S (hemophilia B-causing FIX variant)
- FIX activity without the FVIIIa-mimetic: only 0.1% and 2% activity without the FVIIIa-mimetic
- FIX activity, one-stage aPTT clotting assay with and without 300 nM emicizumab: I397T, E387K, R338P, and G93S all substantially increase their activity with the addition of emicizumab
